Here are results for one molecule from PMC10185811, “FAT10 and NUB1L cooperate to activate the 26S proteasome” (Life Science Alliance, 2023).

In one experiment the target is T1, His6-RPN10 (human, UniProt P55036 1-377).
T1 construct: RPN10 (hS5α), subunit of the 19S regulator of the 26S proteasome, human; also called His–RPN10; hS5α; source: recombinant; expression and purification described before (Rani et al, 2012)
Put plainly: BLI; Octet; His6-RPN10 on the sensor; GST-FAT10 alone or together with NUB1LΔUBL in solution; Octet buffer; 1:1 binding model. Conditions: both partners purified. Background: Biolayer interferometry detects binding as a change in optical thickness at a sensor tip.

In experiment [1] the target is T2, NUB1L (NEDD8 ultimate buster 1 long), tagless (human, UniProt Q9Y5A7-1 1-615).
T2 construct: NUB1L, human, the long splice variant of NUB1 with one UBL and three UBA domains, printed mass 69.1 kD; The long splice variant is meant; which UniProt isoform id holds it was not checked; By my reading of the printed primers the insert begins at Ala2 (AQKKYLQ) and runs to the stop codon; also called NUB1 long; full-length WT NUB1L; source: recombinant, cloned into the pSUMO vector; expression, …
T2 sequence (looked up): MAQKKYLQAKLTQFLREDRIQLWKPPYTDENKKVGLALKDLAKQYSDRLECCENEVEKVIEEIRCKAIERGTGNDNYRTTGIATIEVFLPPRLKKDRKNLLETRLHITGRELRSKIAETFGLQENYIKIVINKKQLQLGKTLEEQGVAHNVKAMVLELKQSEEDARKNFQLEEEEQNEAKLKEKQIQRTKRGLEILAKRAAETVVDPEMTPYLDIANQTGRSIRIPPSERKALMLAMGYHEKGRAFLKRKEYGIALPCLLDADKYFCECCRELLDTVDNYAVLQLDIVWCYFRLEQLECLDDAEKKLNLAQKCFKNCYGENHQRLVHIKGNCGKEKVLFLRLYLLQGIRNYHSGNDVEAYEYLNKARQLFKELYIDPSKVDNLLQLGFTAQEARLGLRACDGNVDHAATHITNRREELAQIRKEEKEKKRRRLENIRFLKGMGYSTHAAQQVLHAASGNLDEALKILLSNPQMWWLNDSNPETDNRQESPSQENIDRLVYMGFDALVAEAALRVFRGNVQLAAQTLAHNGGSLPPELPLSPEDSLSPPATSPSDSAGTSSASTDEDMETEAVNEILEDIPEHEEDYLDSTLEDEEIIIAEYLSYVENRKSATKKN
Put plainly: BLI; Octet; His6-RPN1 loaded on the nickel sensor; NUB1L, GST-FAT10, NUB1L with GST-FAT10 or NUB1L with GST in solution; Octet buffer (PBS, 0.1% Triton X-100, 1x ROTIBlock); 1:1 binding model. The note with it: both partners purified.

T1 sequence (P55036 whole entry): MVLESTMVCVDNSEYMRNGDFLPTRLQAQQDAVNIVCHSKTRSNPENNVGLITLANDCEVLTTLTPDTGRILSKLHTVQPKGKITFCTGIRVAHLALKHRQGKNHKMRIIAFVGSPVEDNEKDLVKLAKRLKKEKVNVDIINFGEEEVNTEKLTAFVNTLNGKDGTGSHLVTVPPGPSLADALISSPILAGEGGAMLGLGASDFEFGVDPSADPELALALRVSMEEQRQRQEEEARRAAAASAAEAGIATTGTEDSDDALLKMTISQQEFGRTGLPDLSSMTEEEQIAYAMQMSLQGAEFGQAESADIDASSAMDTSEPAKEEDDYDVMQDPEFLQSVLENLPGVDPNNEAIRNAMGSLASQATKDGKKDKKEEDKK

B1: GST-FAT10 (natural protein, human, UniProt O15205 1-165, looked up)
chain: MAPNASCLCVHVRSEEWDLMTFDANPYDSVKKIKEHVRSKTKVPVQDQVLLLGSKILKPRRSLSSYGIDKEKTIHLTLKVVKPSDEELPLFLVESGDEAKRHLLQVRRSSSVAQVKAMIETKTGIIPETQIVTCNGKRLEDGKMMADYGIRKGNLLFLACYCIGG
notes: FAT10 (HLA-F adjacent transcript 10), human; source: recombinant; expression and purification previously described (Schmidtke et al, 2006)
For the molecule B1, the binding result (in the experiment with His6-RPN10; in experiment [1]) was “binds” each time.
